Source: patent publication US20100061996A1 (Genentech, published 2010)

Key:
[1] = molecular target: T1, matriptase protease domain (UniProt Q9Y5Y6 615-855, limits assumed); assay: enzyme inhibition, 0.5 nM matriptase, chromogenic substrate S2765; apparent Ki (Ki*) from tight-binding fit
T1 construct: domain: protease domain
T1 sequence (looked up): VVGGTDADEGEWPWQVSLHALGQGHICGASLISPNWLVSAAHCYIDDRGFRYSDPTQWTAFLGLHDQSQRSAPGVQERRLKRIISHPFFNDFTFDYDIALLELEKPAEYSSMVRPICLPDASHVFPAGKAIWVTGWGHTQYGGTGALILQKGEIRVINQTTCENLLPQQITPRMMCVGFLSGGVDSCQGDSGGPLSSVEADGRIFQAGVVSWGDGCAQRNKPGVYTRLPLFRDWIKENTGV
Procedure: (§1) After substrate addition, the linear rates of the increase in absorbance at 405 nm was measured on a kinetic microplate reader (Molecular Devices, Sunnyvale, Calif.).

[2] = molecular target: T2, soluble His-tagged hepsin comprising the entire extracellular domain of human hepsin (Arg45-Leu417) (human, UniProt P05981 45-417); assay: enzyme inhibition, 0.5 nM hepsin, chromogenic substrate S2366; apparent Ki (Ki*) from tight-binding fit
T2 construct: range 45-417; also called soluble hepsin; recombinant soluble hepsin; not shown: His tag
T2 sequence (P05981 45-417 limits assumed): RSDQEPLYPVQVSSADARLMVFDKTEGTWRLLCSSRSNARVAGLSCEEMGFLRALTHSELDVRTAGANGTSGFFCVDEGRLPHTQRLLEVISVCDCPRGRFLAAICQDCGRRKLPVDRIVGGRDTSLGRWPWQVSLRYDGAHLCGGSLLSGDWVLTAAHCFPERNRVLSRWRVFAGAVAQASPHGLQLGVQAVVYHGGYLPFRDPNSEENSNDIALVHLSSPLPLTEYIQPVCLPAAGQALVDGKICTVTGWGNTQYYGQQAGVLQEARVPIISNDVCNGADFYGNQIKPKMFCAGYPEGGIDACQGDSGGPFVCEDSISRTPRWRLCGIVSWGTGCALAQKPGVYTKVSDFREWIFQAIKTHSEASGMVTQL
Procedure: as §1

Ki [1]: 0.85 nM
Ki [2]: 0.26 nM
B1: soluble HAI-2 (hepatocyte growth factor activator inhibitor-2) (other, UniProt O43291 28-197, looked up)
chain: ADRERSIHDFCLVSKVVGRCRASMPRWWYNVTDGSCQLFVYGGCDGNSNNYLTKEECLKKCATVTENATGDLATSRNAADSSVPSAPRRQDSEDHSSDMFNYEEYCTANAVTGPCRASFPRWYFDVERNSCNNFIYGGCRGNKNSYRSEEACMLRCFRQQENPPLPLGSK
